target: T1, human CD40 expressed on CHO cells (human, UniProt P25942 21-277); assay: FACS, CHO cells
T1 construct: whole, on cells; also used for the reporter cells over-expressing human CD40; also called cellular CD40; CHO-CD40 cells
T1 sequence (P25942 21-277): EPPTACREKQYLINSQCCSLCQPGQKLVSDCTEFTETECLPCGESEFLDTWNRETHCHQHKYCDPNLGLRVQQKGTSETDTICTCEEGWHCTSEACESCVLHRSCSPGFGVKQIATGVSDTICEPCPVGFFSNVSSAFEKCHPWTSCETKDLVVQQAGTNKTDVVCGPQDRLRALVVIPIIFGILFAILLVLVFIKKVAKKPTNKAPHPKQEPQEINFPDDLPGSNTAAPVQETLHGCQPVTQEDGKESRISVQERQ

Binder | binding result
Ly825 (bispecific antibody, human IgG1, kappa, Ly591 HC (IgG1 mutated Fc) + Ly591 LC-TM740 scFv VL-VH) heavy: EVQLVESGGGLVQPGGSLRLSCAASGFTFTDYTMDWVRQAPGKGLEWVADVNPNSGGSIYNQRFKGRFTLSVDRSKNTLYLQMNSLRAEDTAVYYCARNLGPSFYFDYWGQGTLVTVSSASTKGPSVFPLAPSSKSTSGGTAALGCLVKDYFPEPVTVSWNSGALTSGVHTFPAVLQSSGLYSLSSVVTVPSSSLGTQTYICNVNHKPSNTKVDKKVEPKSCDKTHTCPPCPAPELLGPSVFLFPPKPKDTLMISRTPEVTCVVVDVSHEDPEVKFNWYVDGVEVHNAKTKPREEQYNSTYRVVSVLTVLHQDWLNGKEYKCKVSNKALPAPIEKTISKAKGQPREPQVYTLPPSREEMTKNQVSLTCLVKGFYPSDIAVEWESNGQPENNYKTTPPVLDSDGSFFLYSKLTVDKSRWQQGNVFSCSVMHEALHNHYTQKSLSLSPG light: not shown | binds
Ly836 (bispecific antibody, human IgG1, kappa, Ly591 HC (IgG1 mutated Fc) + Ly591 LC-Ly253 scFv VH-VL) heavy: EVQLVESGGGLVQPGGSLRLSCAASGFTFTDYTMDWVRQAPGKGLEWVADVNPNSGGSIYNQRFKGRFTLSVDRSKNTLYLQMNSLRAEDTAVYYCARNLGPSFYFDYWGQGTLVTVSSASTKGPSVFPLAPSSKSTSGGTAALGCLVKDYFPEPVTVSWNSGALTSGVHTFPAVLQSSGLYSLSSVVTVPSSSLGTQTYICNVNHKPSNTKVDKKVEPKSCDKTHTCPPCPAPELLGPSVFLFPPKPKDTLMISRTPEVTCVVVDVSHEDPEVKFNWYVDGVEVHNAKTKPREEQYNSTYRVVSVLTVLHQDWLNGKEYKCKVSNKALPAPIEKTISKAKGQPREPQVYTLPPSREEMTKNQVSLTCLVKGFYPSDIAVEWESNGQPENNYKTTPPVLDSDGSFFLYSKLTVDKSRWQQGNVFSCSVMHEALHNHYTQKSLSLSPG light: not shown | binds
Ly828 (bispecific antibody, human IgG1, kappa, Ly591 HC (IgG1 mutated Fc) + Ly591 LC-TM559 scFv VH-VL) heavy: EVQLVESGGGLVQPGGSLRLSCAASGFTFTDYTMDWVRQAPGKGLEWVADVNPNSGGSIYNQRFKGRFTLSVDRSKNTLYLQMNSLRAEDTAVYYCARNLGPSFYFDYWGQGTLVTVSSASTKGPSVFPLAPSSKSTSGGTAALGCLVKDYFPEPVTVSWNSGALTSGVHTFPAVLQSSGLYSLSSVVTVPSSSLGTQTYICNVNHKPSNTKVDKKVEPKSCDKTHTCPPCPAPELLGPSVFLFPPKPKDTLMISRTPEVTCVVVDVSHEDPEVKFNWYVDGVEVHNAKTKPREEQYNSTYRVVSVLTVLHQDWLNGKEYKCKVSNKALPAPIEKTISKAKGQPREPQVYTLPPSREEMTKNQVSLTCLVKGFYPSDIAVEWESNGQPENNYKTTPPVLDSDGSFFLYSKLTVDKSRWQQGNVFSCSVMHEALHNHYTQKSLSLSPG light: not shown | binds
Ly835 (bispecific antibody, human IgG1, kappa, Ly591 HC (IgG1 mutated Fc) + Ly591 LC-Ly253 scFv VL-VH) heavy: EVQLVESGGGLVQPGGSLRLSCAASGFTFTDYTMDWVRQAPGKGLEWVADVNPNSGGSIYNQRFKGRFTLSVDRSKNTLYLQMNSLRAEDTAVYYCARNLGPSFYFDYWGQGTLVTVSSASTKGPSVFPLAPSSKSTSGGTAALGCLVKDYFPEPVTVSWNSGALTSGVHTFPAVLQSSGLYSLSSVVTVPSSSLGTQTYICNVNHKPSNTKVDKKVEPKSCDKTHTCPPCPAPELLGPSVFLFPPKPKDTLMISRTPEVTCVVVDVSHEDPEVKFNWYVDGVEVHNAKTKPREEQYNSTYRVVSVLTVLHQDWLNGKEYKCKVSNKALPAPIEKTISKAKGQPREPQVYTLPPSREEMTKNQVSLTCLVKGFYPSDIAVEWESNGQPENNYKTTPPVLDSDGSFFLYSKLTVDKSRWQQGNVFSCSVMHEALHNHYTQKSLSLSPG light: not shown | binds

The next lines start with the values.

binding result | Binder
binds | Ly827 (bispecific antibody, human IgG1, kappa, Ly591 HC (IgG1 mutated Fc) + Ly591 LC-TM559 scFv VL-VH) heavy: EVQLVESGGGLVQPGGSLRLSCAASGFTFTDYTMDWVRQAPGKGLEWVADVNPNSGGSIYNQRFKGRFTLSVDRSKNTLYLQMNSLRAEDTAVYYCARNLGPSFYFDYWGQGTLVTVSSASTKGPSVFPLAPSSKSTSGGTAALGCLVKDYFPEPVTVSWNSGALTSGVHTFPAVLQSSGLYSLSSVVTVPSSSLGTQTYICNVNHKPSNTKVDKKVEPKSCDKTHTCPPCPAPELLGPSVFLFPPKPKDTLMISRTPEVTCVVVDVSHEDPEVKFNWYVDGVEVHNAKTKPREEQYNSTYRVVSVLTVLHQDWLNGKEYKCKVSNKALPAPIEKTISKAKGQPREPQVYTLPPSREEMTKNQVSLTCLVKGFYPSDIAVEWESNGQPENNYKTTPPVLDSDGSFFLYSKLTVDKSRWQQGNVFSCSVMHEALHNHYTQKSLSLSPG light: not shown
binds | Ly826 (bispecific antibody, human IgG1, kappa, Ly591 HC (IgG1 mutated Fc) + Ly591 LC-TM740 scFv VH-VL) heavy: EVQLVESGGGLVQPGGSLRLSCAASGFTFTDYTMDWVRQAPGKGLEWVADVNPNSGGSIYNQRFKGRFTLSVDRSKNTLYLQMNSLRAEDTAVYYCARNLGPSFYFDYWGQGTLVTVSSASTKGPSVFPLAPSSKSTSGGTAALGCLVKDYFPEPVTVSWNSGALTSGVHTFPAVLQSSGLYSLSSVVTVPSSSLGTQTYICNVNHKPSNTKVDKKVEPKSCDKTHTCPPCPAPELLGPSVFLFPPKPKDTLMISRTPEVTCVVVDVSHEDPEVKFNWYVDGVEVHNAKTKPREEQYNSTYRVVSVLTVLHQDWLNGKEYKCKVSNKALPAPIEKTISKAKGQPREPQVYTLPPSREEMTKNQVSLTCLVKGFYPSDIAVEWESNGQPENNYKTTPPVLDSDGSFFLYSKLTVDKSRWQQGNVFSCSVMHEALHNHYTQKSLSLSPG light: not shown
